Substitutions are numbered along the chain they refer to. Blank lines part the entries; values can stand above or below the binder they belong to.
Biological target: T1, mouse IL-2Rβ (mouse) (UniProt P16297)
T1 sequence (looked up): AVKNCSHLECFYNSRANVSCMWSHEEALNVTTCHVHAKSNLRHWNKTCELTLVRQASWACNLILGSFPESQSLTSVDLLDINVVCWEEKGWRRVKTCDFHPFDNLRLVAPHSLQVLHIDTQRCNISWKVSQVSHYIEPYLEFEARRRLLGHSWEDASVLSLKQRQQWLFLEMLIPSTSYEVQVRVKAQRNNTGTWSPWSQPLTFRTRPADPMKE
Experiment: P.E. binding ELISA on coated protein

P.E. binding ELISA OD: 0.048 OD450 nm
B4: FJ1427_P035MP03G07 (VHH)
VHH: QVQLVESGGGLVQAGGSLRLSCAASGRTFSSDAKGWFRQAPGKEREFVAAITWAGRGTDYADSVKGRFTITRDNAKNMVYLQMSNLKPEDTAVYYCALNPEGVIGPYFRNSNRYNYWGQGTQVTVSS

P.E. binding ELISA OD: 0.052 OD450 nm
B5: FJ1427_P035MP03H09 (VHH)
VHH: QVQLVESGGGLVQAGGSLRLSCAASGSIFSINAMGWFRQAPGKEREFVAAISRSGGSTAYVDSVKGRFTISRDNSKNMVHLQMNSLKSEDEAVYYCAATAAVGWTSRWITTDFDSWGQGTQVTVSS

P.E. binding ELISA OD: 0.05 OD450 nm
B8: FJ1427_P035MP03H04 (VHH)
VHH: QVQLVESGGGLVQAGGSLALSCAASGGTFSSYAMGWFRQAPGKEREFVAATTRGGGRTMYAVSTEGRFSCSRDNAKNTVYLLIKNLKPEDTAVYYCAARTSYYDGTYYPASSDFDIWGQGTQVTVSS

P.E. binding ELISA OD: 0.048 OD450 nm
B10: FJ1427_P035MP03D03 (VHH)
VHH: QVQLVESGGGLVQVGDSLRLSCAASGRTVGSANMGWFRQAPGKEREFVAVITWSTGSTVYADSVKGRFTISRDNAKNTVYLDLSSLKPEDTAVYYCAADVYPYSGNLNIMDYWGKGTQVTVSS

P.E. binding ELISA OD: 0.048 OD450 nm
B13: FJ1427_P035MP03E04 (VHH)
VHH: QVQLVESGGGLVQTGGSLRLSCAVSGSHFISDVMGWYRQVPEKQRELVADMADGNSAKYADSVKGRFSILRDSVKNTVYLQMSSLKPEDTGIYYCKAGLWIAGRHSDYWGQGTQVTVSS

P.E. binding ELISA OD: 0.049 OD450 nm
B15: FJ1427_P035MP03G05 (VHH)
VHH: EVQLVESGGGLVQIGGSLRLSCAASGRTFSSITMAYFRQVPGKEREWVAGINFSGTRTFYADSVKGRFLISRDDAKSTMYLQMNSLKPEDTAVYYCAASPRGFYGPGNALYDYWGQGTQVTVSS

P.E. binding ELISA OD: 0.05 OD450 nm
B16: FJ1427_P035MP03G03 (VHH)
VHH: QVQLVESGGGLVQPGGSLGLSCAASGFTFDNYAMSWVRQAPGKGLEWVSSITGAGRGTHYADSVKGRFTISRDNAKNTLYLQMNSLKPEDTAVYYCAKYSSSTYYPPTPARGTDYRGPGTQVTVSS

P.E. binding ELISA OD: 0.048 OD450 nm
B17: FJ1427_P035MP03E06 (VHH)
VHH: B16 VHH with P14A, G16R

P.E. binding ELISA OD: 0.047 OD450 nm
B22: FJ1427_P035MP03C07 (VHH)
VHH: QVQLVESGGGLVQAGDSLRLSCAASGRSLSTDCMGWVRQAPGKEREFVAGITWGTGSTLYADSVEGRFTISKDNAKNTGYLQMSSLKPEDTAVYYCAVDRYCYRGTVYRDWGRGTQVTVSS

P.E. binding ELISA OD: 0.048 OD450 nm
B23: FJ1427_P035MP03E08 (VHH)
VHH: QVQLVESGGGLVQAGGSLRLSCAAAGRAIENYPVGWFRRAPGKEREFVAAITWISGSTLYADSVKGRFTISRDNAKNTVYLQMSSLKPEDTALYYCAAALKTITRGQNDYSYWGQGTQVTVSS

P.E. binding ELISA OD: 0.049 OD450 nm
B27: FJ1427_P035MP03F04 (VHH)
VHH: EVQLVESGGGLVQTGGSLRLSCAASGSQFINDVMGWYRQVPGKQRELVADMDDTGSTKYADSVKGRFTILRDSVKNTAYLQMSNLKPEDTGVYYCKAGLWIKGRHSDYWGQGTQVTVSS

P.E. binding ELISA OD: 0.048 OD450 nm
B28: FJ1427_P035MP03F06 (VHH)
VHH: B27 VHH with E1Q, V5Q

P.E. binding ELISA OD: 0.046 OD450 nm
B30: FJ1427_P035MP03B09 (VHH)
VHH: QVQLVESGGGLVQAGGSLRLSCVVSGDVFVRYTMAWFRQAPGKEREFVTSITDSGRTTEYVDSVKGRFTVSRDNAKNTVYLQMNNLKPEDTAVYYCAANTDYFRIRSLDANTWGQGTQVTVSS

P.E. binding ELISA OD: 0.053 OD450 nm
B32: FJ1427_P035MP03H07 (VHH)
VHH: B30 VHH with Q1E, T49A, S50A, I51V, R104Q, L108V, A110N, T112A

P.E. binding ELISA OD: 0.054 OD450 nm
B33: FJ1427_P035MP03G09 (VHH)
VHH: B30 VHH with T49A, S50V, I51V, R104Q, L108V, A110N, T112A

The next lines start with the binder.

B1: FJ1427_P035MP03A07 (VHH)
VHH: QVQLVESGGGLVEAGGSLRLSCAASGRAFNNFPMGWFRQAPGKEREFVAAITWISGSTLYADSVKGRFTISRDKSKNTVYLQMSGLKPEDTALYYCAAALKTITRGQHDYTYWGQGTQVTVSS
P.E. binding ELISA OD: 0.049 OD450 nm

B2: FJ1427 P035MP03A03 (VHH)
VHH: EVQLVESGGGSVQTGGSLRLSCVVSGSHFISDVMGWYRQVPGKQRELVADMADGGSVKYGDSVKGRFTILRDSVKNTVTLQMSSLNPEDTGVYYCKAGLWITGRHFDYWGQGTQVTVTS
P.E. binding ELISA OD: 0.05 OD450 nm

B3: FJ1427_P035MP03A04 (VHH)
VHH: B2 VHH
P.E. binding ELISA OD: 0.051 OD450 nm

B6: FJ1427 P035MP03C04 (VHH)
VHH: B8 VHH with Q1E, G16A, A19E, Y80N
P.E. binding ELISA OD: 0.048 OD450 nm

B7: FJ1427 P035MP03H05 (VHH)
VHH: B8 VHH with V2L
P.E. binding ELISA OD: 0.049 OD450 nm

B9: FJ1427_P035MP03A09 (VHH)
VHH: QVQLVESGGGLVQAGGSLRLACAASGRTFSTLTMGWFRQAPGKEREFVAGISPSGGYAWHADSVKGRFTIDRDNAKNTVYLQTRSLRPEDTAVYYCAADHPPYGAVASRSEYEYDDWGPGTRVTVSS
P.E. binding ELISA OD: 0.049 OD450 nm

B11: FJ1427 P035MP03E05 (VHH)
VHH: EVQLVESGGGLVQAGGSLRLSCAVSGVIFWSDVVGWYRQASGKQRELVATINLDDTKHYGEVVKGRFAISRDSHKNAYYLQLNSLKPEDTAVYYCNVRRGSEFYWGQGTQVTVSS
P.E. binding ELISA OD: 0.049 OD450 nm

B12: FJ1427 P035MP03F07 (VHH)
VHH: QVQLVESGGGLVQAGGSLRLSCAASGRTFSSYVMGWFRQAPGKEREFVVAITGTRRTTDWPDSVKGRFTISRDNAQNTVYLDMNSLKPEDTAVYYCASARGLPVPPLGDIIHWGEGTLVTVSS
P.E. binding ELISA OD: 0.048 OD450 nm

B14: FJ1427 P035MP03A06 (VHH)
VHH: B13 VHH with Q1E, H28R, E42G, Q44A, N55G, L70V, V74G, N76S, V78M, I92M
P.E. binding ELISA OD: 0.047 OD450 nm

B18: FJ1427_P035MP03B05 (VHH)
VHH: EVQLVESGGGLVQAGGSLRLACALSGDVFVRYTMAWFRQAPGKEREFVASVTDSGRTTDYVASVQGRFTVSRDNNKNTVYLQMNSLKPEDTAVYYCAANTDYFQIRSLDRNTWGQGTQVTVSS
P.E. binding ELISA OD: 0.05 OD450 nm

B19: FJ1427 P035MP03D07 (VHH)
VHH: B18 VHH with A21S, L24A, V61G, A62D, Q65K, N75A, S85N, R110A
P.E. binding ELISA OD: 0.049 OD450 nm

B20: FJ1427 P035MP03C08 (VHH)
VHH: B18 VHH
P.E. binding ELISA OD: 0.054 OD450 nm

B21: FJ1427 P035MP03D04 (VHH)
VHH: QVQLVESGGGLVQPGGSLRLSCAASGFTFSNYAMSWVRQAPGKELEWVSSITSAGRGTHYADTVKGRFTISRDNDENTLYLQMNSLEPEDTAVYYCAKYSSATYYPPTPAQGRDYRGQGTQVTVSS
P.E. binding ELISA OD: 0.048 OD450 nm

B24: FJ1427 P035MP03F09 (VHH)
VHH: B23 VHH with Q1E, R19T, A25S, I29F, E30S, R39Q, I54L, K65E, Q82L, Y95F
P.E. binding ELISA OD: 0.048 OD450 nm

B25: FJ1427 P035MP03C10 (VHH)
VHH: QVQLVESGGGLVQAGGSLRLSCAASGRTFSTTEMGWFRQAPGKEREFVAAITWTGRGTMYAESVEGRFTISRENAKNMVYLQMNSLKPEDTAIYYCAAARRGRAAVRSEGGYDFWGQGTQVTVSS
P.E. binding ELISA OD: 0.047 OD450 nm

B26: FJ1427 P035MP03B04 (VHH)
VHH: B27 VHH with E1Q
P.E. binding ELISA OD: 0.048 OD450 nm

B29: FJ1427 P035MP03E07 (VHH)
VHH: B30 VHH with V23A, T49A, S50T, I51V
P.E. binding ELISA OD: 0.057 OD450 nm

B31: FJ1427 P035MP03B10 (VHH)
VHH: B30 VHH with T49A, S50V, I51V, R104Q, L108V, A110N, T112A
P.E. binding ELISA OD: 0.05 OD450 nm

Reference: patent US20240409645A1
